Assay: yeast display, Sf9 membrane polyspecificity reagent, FACS + sequencing; frameworks hold sequencing errors
Method in brief: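 Polyreactivity labels are assigned by the sorting gate from which each nanobody was recovered. The gates were low and high (top ~1%), set on anti-HA fluorescence for expression and streptavidin fluorescence for reagent binding. Before sorting, galactose-induced (36–48 hours) yeast display cells were stained for 1 hour at 4 °C with 10% biotinylated, detergent-solubilized Sf9 membrane reagent.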

Row | Sequence | polyreactivity (PSR sort gate)
1 | QVQLVESGGGLVQAGGSLRLSCAASGFTFRWYAMGWYRQAPGKERELVARISWDGGSTYYADSVKGRFTISRDNAKNTVYLQMNSLKPEDTAVYDCAKDWYYLRRNYDYWGQGTQVTVSS | high polyreactivity
2 | QVQLVESGGGLVQAGGSLRLSCAASGFTFRWYTMGWYRPAPGKERELVAAISWSGTSTYYADSVKGRFTISRDNAKNTVYLQMNSLKPEDTAVYYCAAADFYYTGADDYWGQGTQVTVSS | high polyreactivity
3 | QVQLVESGGGLVQAGGSLRLSCAASGFTFRWYTMGWYRQAPGKERELGAAINRGGSTYYADSVKGRFTISRDNAQNTVYLQMNSLKPEDTAVYYCAKSVSASWGRDYWGQGTQVTVSS | high polyreactivity
4 | QVQLVESGGGLVQAGGSLRLSCAASGFTFRWYTMGWYRQAPGKERELVAAISWSGTSTYYADSVKGRFTISRDNAKNIVYLQMNSLKPEDTAVYYCAAADFYYTGADDYWGQGTQVTVSS | high polyreactivity
5 | QVQLVESGGGLVQAGGSLRLSCAASGFTFRYNAMGWYRQAPGKEREVVAAITSGGNTNYADSVKGRFTISRDNAKNTFYLQMNSLKPEDTAVYYCNTAWRDYVARLGGVGYDYWGQGTQVTVSS | high polyreactivity
6 | QVQLVESGGGLVQAGGSLRLSCAASGFTFRYYAMGRSRQAPGKERELVAAITGSGVNTYYADSVKGRFTISRDNAKNTVYLQMNSLKPEDTAVYYCAAESESDPLFDRYYWGQGTQVTVSS | high polyreactivity
7 | QVQLVESGGGLVQAGGSLRLSCAASGFTFRYYAMGWSRQAAGKERELVATITGSGGSTYYADSVKGRFTISRDNAKNTVYLQMNSLKPEDTAVYYCNTVWYSDVRYTRFYYWGQGTQVTVSS | high polyreactivity
8 | QVQLVESGGGLVQAGGSLRLSCAASGFTFRYYAMGWYRPAPGKERELVAGISWSGSRTYYADSVKGRFTISRDSAKNTVYLQMNSLKPEDTAVYYCAKVNSYGPVPDRYDYWGQGTQVTVSS | high polyreactivity
9 | QVQLVESGGGLVQAGGSLRLSCAASGFTFRYYAMGWYRQAPGKEREFVAAITYNGVSTYYADSVKGRFTISRDNAKNTVYLQMNSLKPEDTAVYYCAAGWYYYARPRVYNAREYYYWGQGTQVTVSS | high polyreactivity
10 | QVQLVESGGGLVQAGGSLRLSCAASGFTFRYYAMGWYRQAPGKERELVAAISAGGSTYYADSVKGRFTISRDNAKNTVYLQMNSLKQEDTAVYYCTARYQGFVITYYYWGQGTQVTVSS | high polyreactivity
11 | QVQLVESGGGLVQAGGSLRLSCAASGFTFRYYAMGWYRQAPGKERELVAAITRRSGSTYYADSVKGRFTISRDNAKNTVYLQMNSLKPEDTAVYYCAARASTIMGSWGQGTQVTVSS | high polyreactivity
12 | QVQLVESGGGLVQAGGSLRLSCAASGFTFRYYAMGWYRQAPGKERELVATITGYGGSTYYADSVKGRFTISRDNAKNTVYLQMNSLKPEDTAVYYCNTVWYTDVRYTRFYYWGQGTQVTVSS | high polyreactivity
13 | QVQLVESGGGLVQAGGSLRLSCAASGFTFRYYAMGWYRQEPGKERELVARISSGGSTNYADSVKGRFTISRDNAKNTVYLQMNSLKPEDTSVKYCAARLDHWLIYAYDYWGQGTQVTVSS | high polyreactivity
14 | QVQLVESGGGLVQAGGSLRLSCAASGFTFRYYTMGWYRQAPGKERELVAAITSSGGNTYYADSVKGRFTISRDNAKYTVYLQMNSLKPEDTAVYYCAADGRYYAVFRYDYWGQGTQVTVSS | low polyreactivity
15 | QVQLVESGGGLVQAGGSLRLSCAASGFTFSAYAMGWYRPAPGKERELVAAISWSGSRTYYADSVKGRFTISRDNAKNTVYLQMNSLKQEDTEVYYCAKEPYDTFGFYEYDYWGQGTQVTVSS | low polyreactivity
16 | QVQLVESGGGLVQAGGSLRLSCAASGFTFSAYDMGWYRQAPGKERELVAAISWSGGRTYYADSVKGRFTISRDNAKNTVYLQMNSLKPEDTAVYYCNAASLRYSYTLFDSWGQGTQVTVSS | high polyreactivity
17 | QVQLVESGGGLVQAGGSLRLSCAASGFTFSAYTMGWYRQAPGKERELVAAINWSGANTYYADSVKGRFTISRDNAKNTVYLQMNSLKPEDTAVYYCNAEDDYTYDLSFGGYKYDYWGQGTQVTVSS | low polyreactivity
18 | QVQLVESGGGLVQAGGSLRLSCAASGFTFSDYAMGWYRQAPGKERELVAAISTRGSSTYYADSVKGRFTISRDNAKNTVYLQMNSLKPEDTAVYYCNAVGSYSGYYYWGQGTQVTVSS | high polyreactivity
19 | QVQLVESGGGLVQAGGSLRLSCAASGFTFSENTMGWYRQAPGKERELVADIDSGGSTYYADSVKGRFTISRDNAKNTVYLQMKRLKPEDTAVYYCAKDYHVVGGPTFLFEYDYWGQGSQVTVSS | low polyreactivity
20 | QVQLVESGGGLVQAGGSLRLSCAASGFTFSFYAMGWYRQAPGKERELVAGISKRGGSTYYADSVKGRFTISRDNAKNTVYFLMNSLNPEDTAVYYCAARWYARSLTRFNYWGQGTQVTVSS | high polyreactivity
21 | QVQLVESGGGLVQAGGSLRLSCAASGFTFSFYAMGWYRQAPGKERELVAVISRSGGGTYYADSVKGRFTISRDNAKHTVYLQMNSLKPEDTAVYYCAARLGNRRYDYWGQGTQVTVSS | high polyreactivity
22 | QVQLVESGGGLVQAGGSLRLSCAASGFTFSFYSMGWSRQAPGKERELVAAITSRGTSTYYADSVKGRFTISRDNAKNTVYLQMNSLKPEDTAVYYCAKLLPRGQWPYDYWGQGTQVTVSS | high polyreactivity

Row | Sequence | polyreactivity (PSR sort gate)
23 | QVQLVESGGGLVQAGGSLRLSCAASGFTFSGNAMGWYRQAPGKERELVAAITTTGVRTYYADSVKGRFTISRDNAKNTVYLQMNSLKPEDTAVYYCNKKRTQRVPVRYDYWGQGTQVTVSS | high polyreactivity
24 | QVQLVESGGGLVQAGGSLRLSCAASGFTFSGYAMGWYRQAPGKERELVAVIRGRGGRTYYADSVKGRFTISRDNAKNTVYLQMNSLKPEDTAVYYCAARRDAYYYVPNRFDYWGQGTQVTVSS | high polyreactivity
25 | QVQLVESGGGLVQAGGSLRLSCAASGFTFSLYAMGWYRQAPGKDRELVASISRSGGSTYYADSVKGRFTISRDNAKYTVYIQMYSLKPEDTAVYYCAARWRPYKYDSWGQGTQVTVSS | high polyreactivity
26 | QVQLVESGGGLVQAGGSLRLSCAASGFTFSLYAMGWYRQAPGKERELVASISSRGGSTYYADSVKGRFTISRDNAKNTVYLQMNSLKPEDTAVYYCNAGSVTRAWWGYWPFNYWGQGTQVTVSS | low polyreactivity
27 | QVQLVESGGGLVQAGGSLRLSCAASGFTFSNNVMGWYRQAPGKERELVADITDSGGDTYYADSVKGRFTISRDNAKNTVYLQMNSLKPEDTAVYYCAARPQHFDLDLAYSGFDYWGQGTQVTVSS | high polyreactivity
28 | QVQLVESGGGLVQAGGSLRLSCAASGFTFSNYAMGWYRQAPGKEREFVAAISGTGGSTYYADSVKGRFTISRDNAKNTVYLQMNSLKPEDTAVYYCNARERVSRQYTFDYWGQGTQVTVSS | high polyreactivity
29 | QVQLVESGGGLVQAGGSLRLSCAASGFTFSPNAMGWYRQAPGKERELVAAISKRGASTYYADSVKGRFTISRDNAKNTVYLQMNSLKPEDTAVYYCNVGASARKPYDYWGQGTQVTVSS | high polyreactivity
30 | QVQLVESGGGLVQAGGSLRLSCAASGFTFSPYTMGSYRQAPGKERELVAGITSRGGSTYYADSVKGRFTISRDTAKNTVYLQMNILKPEDSAVYYCAARSPGYYRIVWYDYWGQGTQVTVSS | high polyreactivity
31 | QVQLVESGGGLVQAGGSLRLSCAASGFTFSRNDMGWYRQAPGKERELVASITTSGGGTYYADSVKGRFTISRDKAKNTVYLQMNSLKPEDTAVYYCAAEYYSIRYGPHSIEVYGMDYWGQGTQVTVSS | low polyreactivity
32 | QVQLVESGGGLVQAGGSLRLSCAASGFTFSRNGMGWYRLAPGKERELVADITLSGASTYYADSVKGRFTISRDNAKNTVYLQMKSLKPEDTAVYYCAADPYHWRWGWRHDYWGQGTQVTVSS | low polyreactivity
33 | QVQLVESGGGLVQAGGSLRLSCAASGFTFSRNTMGWYRQAPGKERELVAAITWRGGSTYYADSVKGRFTISRDNAKNTVYLQMNSLKPEDTAVYYCAASSPNLEFDYWGQGTQVTVSS | high polyreactivity
34 | QVQLVESGGGLVQAGGSLRLSCAASGFTFSRYAMAWYRQAPGKERELVAAITWSGGRTYYADSVKGRFTISRDNAKNTVYLQMNSLKPEATAVYYCAAVYHVWKYHYDYWGQGTQVTVSS | high polyreactivity
35 | QVQLVESGGGLVQAGGSLRLSCAASGFTFSRYAMGWYRPAPGKERELVAAISTRGGRTYYADSVKGRFTISRDNAKNTVYLQMNSLKPEDTAVYYCAADATVGSSDYWGQGTQVTVSS | high polyreactivity
36 | QVQLVESGGGLVQAGGSLRLSCAASGFTFSRYAMGWYRQAPGKERELVAAISYSGGRTYYADSVKGRFTISRDNAKNTVYLQMKSLKPEDTAVYYCNAFFTSSGWRLGYDYWGQGTQVTVSS | high polyreactivity
37 | QVQLVESGGGLVQAGGSLRLSCAASGFTFSRYAMGWYRQAPGKERELVAAITRRGGRTYYADSVKGRFTISRDNAKNTVFLQMNSLKPEDTAVYYCITDAYRLGYDYWGQGTQVTVSS | high polyreactivity
38 | QVQLVESGGGLVQAGGSLRLSCAASGFTFSRYAMGWYRQAPGKEREYVAAISWSGGSTYYADSVKGRFTISRDNAKNTVYLQMNSLKPEDTAVYNCNAGAQLLASQTRYDYWGQGTQVTVSS | low polyreactivity
39 | QVQLVESGGGLVQAGGSLRLSCAASGFTFSRYAMGWYRQAPGTERELVAAITSRGGSTYYADSVKGRFTISRDNAKNTVYLQMNSLKPEDTAVYYCAASGRNRKDGLYEYYYWGQGTQVTVSS | high polyreactivity
40 | QVQLVESGGGLVQAGGSLRLSCAASGFTFSSNAMGWYRQAPGKERELVADINWSGGRTYYADSVKGRFTISRDNAKYTVYLQMNSLKPEDTAVYYCAAVLSWRQYYREYDYWGQGTQVTVSS | high polyreactivity
41 | QVQLVESGGGLVQAGGSLRLSCAASGFTFSSYAMGWYRQAPGKERELVAAISSSGSRTYYADSVKGRFTISRDNAKNTVYLQMNSLKPEDTAVYYCAARPGDGGYYYWGQGTQVTVSS | high polyreactivity
42 | QVQLVESGGGLVQAGGSLRLSCAASGFTFSSYDMGWYRQAPGKERELVAAISRSGGSTYYADSVKGRFTISRDNAKNTVYLQMNCLKPEDTAVYYARAKYSRVTLYQGYGYWGQGTQVTVSS | high polyreactivity
43 | QVQLVESGGGLVQAGGSLRLSCAASGFTFSTNAMGWYRQAPGKERELVAAISKSGVSTYYADSVKGRFTISRDNAKNTVYLQMNSLKPEDTAVYYCAADPKIALYKVWRYDYWGQGTQVTVSS | high polyreactivity

Source: the nanobody polyreactivity screen of Harvey et al. (2022)
